Reference: the nanobody polyreactivity screen of Harvey et al. (2022)

Assay: yeast display, Sf9 membrane polyspecificity reagent, FACS + sequencing; frameworks hold sequencing errors
Method in brief: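 Sorting gates, low and high (top ~1%), were placed on anti-HA fluorescence to track expression and on streptavidin fluorescence to track reagent binding. A clone's polyreactivity label is taken from the gate it came out of. The reagent was 10% biotinylated, detergent-solubilized Sf9 membrane, applied for 1 hour at 4 °C to galactose-induced yeast display cells.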

Row | Sequence | polyreactivity (PSR sort gate)
1 | QVQLVESGGGLVQAGGSLRLTCAASVSTIAGNAMGWYRQAPGKERELVAVITRVGSTNYADSVKGRFTISRDNAKNTVYLQMKSLKPEDTEVYYCARYGFLLDYWRGGYYWGQGTQVTVSS | high polyreactivity
2 | QVQLVESGGGLVQAGGSLRLTCDASGSTFVYYAMGWYRQAPGKERELVAAITFSGGTTFYADSVKGRFTISRDNANNTVYLQMNSLKPEDTAVYYCAADAGFADQYANYHGDDYWGQGTQVTVSS | low polyreactivity
3 | QVQLVESGGGLVQAGGSLRRTCAASGSIFVGYAMGWYRQEPGKERELVASITNGDSTNYADSVKGRFTISRDNAKNTVSYQMNSLKPEDTAVYYCAADYYSVHPSGWYGYEYWGQGTQVTVSS | low polyreactivity
4 | QVQLVESGGGLVQAGGSLRVSCAASGCTFVDYAMCWYRQAPGKERELVAGITSGGSTNYADSVKGRFTISRDNAKNTVYLQMNSVKPEDTAVYDCNADPGQDTPGYTRPEYDYWGQGTQVTVSS | low polyreactivity
5 | QVQLVESGGGLVQAGGSLRVSCAASGFTFSHYAMGWYRQAPGKERELVAAISWGGGSTYYADSVKGRFTISRDNAQNTVYLQMNSLKPEDTAVYYCAARYVLFSNRFDYWGQGTQVTVSS | high polyreactivity
6 | QVQLVESGGGLVQAGGSLRVSCAASGFTFYGYAMGWSRQAPGKEREVVAAISWSGGSTYYADSVKGRFTISRDNAKNTVYLLMNRLKAEDTAVYYCAKKWTAPGKGYPRSPGGYGYWGQGTQVTVSS | high polyreactivity
7 | QVQLVESGGGLVQAGGSLRVSCAASGIIFGPYVMGWSRQAPGKERELVATISRTGDTYYADSVKGRFTISRDNAKNTVYLQMNSLKPEDTAVYYCNTQDHGYGFTMDYWGQGTQVTVSS | low polyreactivity
8 | QVQLVESGGGLVQAGGSLRVSCAASGISFGHYTMGWYRQATGKERELVATITTSGGRTYYADSVKGRFTISRDNAKNTVYLQMNSLKPEDTAVYYCATLSWYPFEYWGQGTQVTVSS | high polyreactivity
9 | QVQLVESGGGLVQAGGSLRVSCAASGLTFRFYAMGWYRQAPGKERELVAAISTSGGSTYYADSVKGRFTISRDNAMNTVYLQMNSLKPEDTAVYYCAARARYYHSRYDYWGQGTQVTVSS | high polyreactivity
10 | QVQLVESGGGLVQAGGSLRVSCAASGLTSIHYMGWYRQAPGKERELVATITSSTGSTYYADSVKGRFTISRDNAKNTVYLQMNSLKPEDTAVDYCAAESFGADGPYQPSYDYWGQGTQVTVSS | low polyreactivity
11 | QVQLVESGGGLVQAGGSLRVSCAASGNIFGEYAMGWYRQAPGKERELVAAITNSGGRTHYADSVKGRFTISRDNAKNTVYLQMNSLKPEDTAVYYCAAPTKYRSRRYYWGQGTQVTVSS | high polyreactivity
12 | QVQLVESGGGLVQAGGSLRVSCAASGRIFILNTMGCYRQAPGKETELVAGISYSGSTYYADSVKGRFTISRDNAKNTVYLQMNSLKPEATAVYYCAAEYDAAWYNEGYYYWGQGTQVTVSS | low polyreactivity
13 | QVQLVESGGGLVQAGGSLRVSCAASGRIIGQYAMGWSRQAPGKEWELVASISRRGGSTYYAASVKGRFTISRDNAKKTVYLQMYSLKPEDTAVYYCAKERTYGHYDYWGQGTQVTVSS | high polyreactivity
14 | QVQLVESGGGLVQAGGSLRVSCAASGRTFGIYAMGWYRQAPGKEREFVAAISWSGTSTHYADSVKGRFTISRDNAKNTFYLQMNSLKPEDTAVYYCATRRSHYGKYDYWGQGTQVTVSS | high polyreactivity
15 | QVQLVESGGGLVQAGGSLRVSCAASGSIFIGYAMGWSRQAPGKERELVAAINDSGDRTYYADSVKGRFTISRDNAKNTVYLQMNSLKPEDTAVYYCAADLVSLDPEYDYWGQGTQVTVSS | low polyreactivity
16 | QVQLVESGGGLVQAGGSLRVSCAASGSNFGGYAMGWYRQAPGKERELVAAISSRGIDTTYADSVKVRFTISRDNAKNTVYLQMYSLKPDDTAVYYCAEFVSDATVGPSNGLDYWGQGTQVTVSS | low polyreactivity
17 | QVQLVESGGGLVQAGGSLRVSCAASGSTCDVNAMGWYRQAPGKERELVAAMSWSDDATYYAYSVKGRFTISRDNAKNTVYVQMNSLKPEDTAVYYCAADGRYGWYYAVYNGEDYWGQGTQVTVSS | high polyreactivity
